Results taken from patent US20240148916A1, “BIVALENT FIBROBLAST ACTIVATION PROTEIN LIGANDS FOR TARGETED DELIVERY APPLICATIONS” (priority 2021, published 2024).
*1 amine or outer side, *2 acyl side, *3 side chain or, on linkers, in order; H or OH if unused. Where a SMILES comes first, the peptide text is derived from it. The star is where a group is joined. Fluorescein(5-Mal) = O=C1OC2(c3ccc(O)cc3Oc3cc(O)ccc32)c2ccc(N3C(=O)CC(*)C3=O)cc21; X1 = N#C[C@@H]1CC(F)(F)CN1C(=O)CNC(=O)c1ccnc2c(N*)cccc12; Suc = O=C(CCC(=O)[*:2])[*:1]

What was measured:
hFAP [1] = biological target: T1, hFAP (Homo sapiens, UniProt Q12884); test: ELISA against immobilized hFAP; assay type: binding; details: biotinylated hFAP immobilized on StreptaWell
T1 sequence (Q12884 1-760): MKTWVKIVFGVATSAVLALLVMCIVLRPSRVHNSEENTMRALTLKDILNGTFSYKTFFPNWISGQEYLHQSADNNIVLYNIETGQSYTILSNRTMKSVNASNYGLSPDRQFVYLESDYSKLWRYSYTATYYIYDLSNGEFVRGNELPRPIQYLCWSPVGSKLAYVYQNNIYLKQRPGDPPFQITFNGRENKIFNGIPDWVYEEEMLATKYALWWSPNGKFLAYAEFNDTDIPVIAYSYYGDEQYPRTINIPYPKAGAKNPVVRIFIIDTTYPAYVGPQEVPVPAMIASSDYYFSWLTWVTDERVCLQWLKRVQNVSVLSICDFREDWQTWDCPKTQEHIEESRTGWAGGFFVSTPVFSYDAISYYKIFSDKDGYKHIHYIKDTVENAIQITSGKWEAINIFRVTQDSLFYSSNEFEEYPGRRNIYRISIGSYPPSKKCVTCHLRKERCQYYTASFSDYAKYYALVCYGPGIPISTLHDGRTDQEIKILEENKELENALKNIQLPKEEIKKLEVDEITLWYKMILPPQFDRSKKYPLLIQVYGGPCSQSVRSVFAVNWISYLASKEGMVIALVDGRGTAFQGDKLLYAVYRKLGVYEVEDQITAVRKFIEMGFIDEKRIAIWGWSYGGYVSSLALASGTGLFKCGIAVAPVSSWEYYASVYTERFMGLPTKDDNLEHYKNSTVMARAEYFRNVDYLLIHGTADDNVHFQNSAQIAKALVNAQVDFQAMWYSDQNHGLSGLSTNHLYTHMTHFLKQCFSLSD
Description: Recombinant human FAP (1 μM, 5 mL) was biotinylated with Biotin-LC-NHS (100 eq.) by incubation at room temperature under gentle agitation in 50 mM HEPES, 100 mM NaCl buffer (pH=7.4). After 2 hours biotinylated hFAP was purified via PD-10 column and dialyzed overnight in HEPES buffer. The following day a StreptaWell™ (transparent 96-well) was incubated with biotinylated hFAP (100 nM, 100 μL/well) for 1 hour at room temperature and washed with PBS (3×, 200 μL/well). The protein was blocked by adding 4% Milk in PBS (200 μL/well, 30 min at RT) and then washed with PBS (3×, 200 μL/well). Immobilized hFAP was incubated for 30 minutes in the dark with serial dilutions of ESV6-Asp-Lys-Asp-Cys-Fluorescein and Bi-ESV6-Asp-Lys-Asp-Cys-Fluorescein (17), then washed with PBS (3×, 200 μL/well). A solution of rabbit αFITC antibody (1 μg/mL, Bio-Rad 4510-7804) in 2% Milk-PBS was added to each well (100 μL/well) and incubated for additional 30 minutes in the dark. The resulting complex was washed with PBS (3×, 200 μL/well) and incubated for additional 30 minutes of protein A-HRP (1 μg/mL in 2% Milk-PBS, 100 μL/well). Each well was washed with PBS 0.1% Tween (3×, 200 μL/well) and with PBS (3×, 200 μL/well). The substrate (TMB—3,3′,5,5′-Tetramethylbenzidine) was added (100 μL/well) and developed in the dark for 2 minutes. […] The absorbance was measured at 450 nm (ref 620-650 nm) with a TECAN spark

hFAP [2] = biological target: T1, hFAP; test: Gel filtration co-elution experiment on hFAP; assay type: binding; details: PD-10 column, hFAP 2 μM
Description: The final solution was loaded on the column and flushed with running buffer. Fractions of the flow-through (200 μL) were collected in test tubes and the radioactivity measured with a Packard Cobra γ-counter. […] The final solution was loaded on the column and flushed with running buffer. Fractions of the flow-through (200 μL) were collected in test tubes and the radioactivity measured with a Packard Cobra γ-counter.

in vivo = test: in vivo; set-up: species or system mice; details: mouse; for tissue to tissue ratio at 1 h / tissue to tissue ratio at 4 h / tissue to tissue ratio at 17 h / tissue to tissue ratio at 24 h: female, athymic BALB/C nu/nu, iv, 250 nmol/kg, total radioactivity
Description: Upon thawing, HT-1080.hFAP positive cells and HT-1080.wt cells were kept in culture in DMEM medium supplemented with fetal bovine serum (10%, FBS) and Antibiotic-Antimycotic (1%, AA) at 37° C. and 5% CO2. For passaging, cells were detached using Trypsin-EDTA 0.05% when reaching 90% confluence and re-seeded at a dilution of 1:4. Cells were grown to 80% confluence and detached with Trypsin-EDTA 0.05%. Cells were re-suspended in cold HBSS medium to a final concentration of 5×10^7 cells/mL. Aliquots of 5×10^6 cells (100 μL of suspension) were injected subcutaneously in the flank of female athymic BALB/C nu/nu mice (6-8 weeks of age). HT-1080.hFAP tumour cells were xenografted in the right flank and HT-1080.wt tumour cells were xenografted in the left flank as described above and allowed to grow to an average volume of 1.2±0.2 mL. […] Mice were sacrificed 1 h, 4 h, 17 h and 24 h after the injection by CO2 asphyxiation and organs extracted, weighted and radioactivity measured with a Packard Cobra γ-counter. Values are expressed as % ID/g±SD (Figure C). Food and water were given ad libitum during that period.

[3] = Tumour-to-organ ratios: HT-1080.hFAP
[4] = Tumour-to-organ ratios: Intestine

| Compound | Complex formation with hFAP (co-elution) (hFAP [2]) | tissue to tissue ratio at 1 h (in vivo; Tumour-to-organ ratios: Blood) | tissue to tissue ratio at 4 h (in vivo; Tumour-to-organ ratios: Blood) | tissue to tissue ratio at 17 h (in vivo; Tumour-to-organ ratios: Blood) | tissue to tissue ratio at 24 h (in vivo; Tumour-to-organ ratios: Blood) | tissue to tissue ratio at 1 h (in vivo; [3]) | tissue to tissue ratio at 4 h (in vivo; [3]) | tissue to tissue ratio at 17 h (in vivo; [3]) | tissue to tissue ratio at 24 h (in vivo; [3]) | tissue to tissue ratio at 1 h (in vivo; Tumour-to-organ ratios: Heart) | tissue to tissue ratio at 4 h (in vivo; Tumour-to-organ ratios: Heart) | tissue to tissue ratio at 17 h (in vivo; Tumour-to-organ ratios: Heart) | tissue to tissue ratio at 24 h (in vivo; Tumour-to-organ ratios: Heart) | tissue to tissue ratio at 1 h (in vivo; [4]) | tissue to tissue ratio at 4 h (in vivo; [4]) | tissue to tissue ratio at 17 h (in vivo; [4]) | tissue to tissue ratio at 24 h (in vivo; [4]) | tissue to tissue ratio at 1 h (in vivo; Tumour-to-organ ratios: Kidney) | tissue to tissue ratio at 4 h (in vivo; Tumour-to-organ ratios: Kidney) | tissue to tissue ratio at 17 h (in vivo; Tumour-to-organ ratios: Kidney) | further results |
| --- | --- | --- | --- | --- | --- | --- | --- | --- | --- | --- | --- | --- | --- | --- | --- | --- | --- | --- | --- | --- | --- |
| N#C[C@@H]1CC(F)(F)CN1C(=O)CNC(=O)c1ccnc2c(NC(=O)CCC(=O)N[C@@H](CC(=O)O)C(=O)N[C@@H](CCCCN)C(=O)N[C@@H](CC(=O)O)C(=O)N[C@@H](CSC3CC(=O)N(c4ccc5c(c4)C(=O)OC54c5ccc(O)cc5Oc5cc(O)ccc54)C3=O)C(=O)O)cccc12 (stereo partly drawn) [ESV6-Asp-Lys-Asp-Cys-Fluorescein] ({X1-Suc}-DKDC(Fluorescein(5-Mal))-OH) | – | – | – | – | – | – | – | – | – | – | – | – | – | – | – | – | – | – | – | – | Kd (hFAP [1]): 32.3 nM |
| N#C[C@@H]1CC(F)(F)CN1C(=O)CNC(=O)c1ccnc2c(NC(=O)CCC(=O)NCCNC(=O)CCC(C(=O)O)N3CCN(CC(=O)O)CCN(CC(=O)O)CCN(CC(=O)O)CC3)cccc12 (single isomer, unassigned) [^177Lu-ESV6-DOTAGA, metal not drawn] | form a stable complex | 43.1 ± 17.2 | 113 ± 49.8 | 236 ± 190 | 855 ± 368 | 34.9 ± 2.79 | 26.8 ± 6.42 | 32.6 ± 17.4 | 13.3 ± 5.95 | 135 ± 19.8 | 208 ± 113 | 354 ± 231 | 169 ± 172 | 41 ± 41.8 | 39.8 ± 11.4 | 163 ± 94.9 | 77 ± 58.6 | 9.16 ± 0.88 | 8.25 ± 1.45 | 5.72 ± 2.04 | tissue to tissue ratio at 24 h (in vivo; Tumour-to-organ ratios: Kidney): 11.9 ± 16; tissue to tissue ratio at 1 h (in vivo; Tumour-to-organ ratios: Liver): 5.89 ± 0.82; tissue to tissue ratio at 4 h (in vivo; Tumour-to-organ ratios: Liver): 21.6 ± 2.99; tissue to tissue ratio at 17 h (in vivo; Tumour-to-organ ratios: Liver): 40.3 ± 13.3; tissue to tissue ratio at 24 h (in vivo; Tumour-to-organ ratios: Liver): 30.4 ± 6.7; tissue to tissue ratio at 1 h (in vivo; Tumour-to-organ ratios: Lung): 37.9 ± 2.59; tissue to tissue ratio at 4 h (in vivo; Tumour-to-organ ratios: Lung): 90.3 ± 29.3; tissue to tissue ratio at 17 h (in vivo; Tumour-to-organ ratios: Lung): 150 ± 88.5; tissue to tissue ratio at 24 h (in vivo; Tumour-to-organ ratios: Lung): 140 ± 83; tissue to tissue ratio at 1 h (in vivo; Tumour-to-organ ratios: Spleen): 109 ± 8.98; tissue to tissue ratio at 4 h (in vivo; Tumour-to-organ ratios: Spleen): 169 ± 67.8; tissue to tissue ratio at 17 h (in vivo; Tumour-to-organ ratios: Spleen): 200 ± 45.7; tissue to tissue ratio at 24 h (in vivo; Tumour-to-organ ratios: Spleen): 103 ± 66.7; tissue to tissue ratio at 1 h (in vivo; Tumour-to-organ ratios: Tail): 31.2 ± 8.39; tissue to tissue ratio at 4 h (in vivo; Tumour-to-organ ratios: Tail): 10.4 ± 7.6; tissue to tissue ratio at 17 h (in vivo; Tumour-to-organ ratios: Tail): 4.74 ± 5.11; tissue to tissue ratio at 24 h (in vivo; Tumour-to-organ ratios: Tail): 8.77 ± 2.3 |
| N#C[C@@H]1CC(F)(F)CN1C(=O)CNC(=O)c1ccnc2c(NC(=O)CCC(=O)NCCCC[C@H](NC(=O)CCC(=O)Nc3cccc4c(C(=O)NCC(=O)N5CC(F)(F)C[C@H]5C#N)ccnc34)C(=O)NCCNC(=O)CCC(C(=O)O)N3CCN(CC(=O)O)CCN(CC(=O)O)CCN(CC(=O)O)CC3)cccc12 (stereo partly shown) [^177Lu-Bi-ESV6-DOTAGA, metal not drawn] | form a stable complex | 32.8 ± 8.97 | 62.8 ± 11.2 | 95.4 ± 19.1 | 178 ± 57.6 | 23 ± 8.09 | 25 ± 1.27 | 27.2 ± 11.3 | 29.7 ± 13.8 | 52.2 ± 10.8 | 125 ± 17.1 | 148 ± 12.9 | 201 ± 59.5 | 59.6 ± 6.48 | 82.4 ± 31.2 | 111 ± 32.1 | 104 ± 60.6 | 7.19 ± 2.29 | 8.61 ± 0.84 | 8.4 ± 1.31 | tissue to tissue ratio at 24 h (in vivo; Tumour-to-organ ratios: Kidney): 9.9 ± 2.38; tissue to tissue ratio at 1 h (in vivo; Tumour-to-organ ratios: Liver): 18.8 ± 5.31; tissue to tissue ratio at 4 h (in vivo; Tumour-to-organ ratios: Liver): 29.9 ± 4.12; tissue to tissue ratio at 17 h (in vivo; Tumour-to-organ ratios: Liver): 27.9 ± 2.25; tissue to tissue ratio at 24 h (in vivo; Tumour-to-organ ratios: Liver): 30.6 ± 8; tissue to tissue ratio at 1 h (in vivo; Tumour-to-organ ratios: Lung): 19.5 ± 4.09; tissue to tissue ratio at 4 h (in vivo; Tumour-to-organ ratios: Lung): 65.5 ± 10.5; tissue to tissue ratio at 17 h (in vivo; Tumour-to-organ ratios: Lung): 124 ± 74.7; tissue to tissue ratio at 24 h (in vivo; Tumour-to-organ ratios: Lung): 98.7 ± 18.9; tissue to tissue ratio at 1 h (in vivo; Tumour-to-organ ratios: Spleen): 42.1 ± 17.7; tissue to tissue ratio at 4 h (in vivo; Tumour-to-organ ratios: Spleen): 73.8 ± 10.3; tissue to tissue ratio at 17 h (in vivo; Tumour-to-organ ratios: Spleen): 68.2 ± 11.7; tissue to tissue ratio at 24 h (in vivo; Tumour-to-organ ratios: Spleen): 93.6 ± 64.5; tissue to tissue ratio at 1 h (in vivo; Tumour-to-organ ratios: Tail): 10.4 ± 1.72; tissue to tissue ratio at 4 h (in vivo; Tumour-to-organ ratios: Tail): 9.68 ± 4.14; tissue to tissue ratio at 17 h (in vivo; Tumour-to-organ ratios: Tail): 14 ± 8.08; tissue to tissue ratio at 24 h (in vivo; Tumour-to-organ ratios: Tail): 15.5 ± 7.98; Kidney uptake (in vivo): transient and becomes negligible 24 hours after injection |
